Patent publication US10822723

What was measured:
[1] = target: GST-iBox, recombinant 38 amino acid Inka box, Inka1 (166-203) [GST: P08515]
[2] = target: 13aa synthetic peptide of the Inka1 iBox with Pro(0)Ser substitution
[3] = target: 13aa synthetic peptide of the Inka1 iBox-C with Pro(0)Ser substitution
[4] = target: 13aa synthetic peptide of the PAK4 AID with Pro(0)Ser substitution

B1: 6His-PAK1 (activated), PAK1 (1-545) (protein)
chain: MSNNGLDIQDKPPAPPMRNTSTMIGAGSKDAGTLNHGSKPLPPNPEEKKKKDRFYRSILPGDKTNKKKEKERPEISLPSDFEHTIHVGFDAVTGEFTGMPEQWARLLQTSNITKSEQKKNPQAVLDVLEFYNSKKTSNSQKYMSFTDKSAEDYNSSNALNVKAVSETPAVPPVSEDEDDDDDDATPPPVIAPRPEHTKSVYTRSVIEPLPVTPTRDVATSPISPTENNTTPPDALTRNTEKQKKKPKMSDEEILEKLRSIVSVGDPKKKYTRFEKIGQGASGTVYTAMDVATGQEVAIKQMNLQQQPKKELIINEILVMRENKNPNIVNYLDSYLVGDELWVVMEYLAGGSLTDVVTETCMDEGQIAAVCRECLQALEFLHSNQVIHRDIKSDNILLGMDGSVKLTDFGFCAQITPEQSKRSTMVGTPYWMAPEVVTRKAYGPKVDIWSLGIMAIEMIEGEPPYLNENPLRALYLIATNGTPELQNPEKLSAIFRDFLNRCLEMDVEKRGSAKELLQHQFLKIAKPLSSLTPLIAAAKEATKNNH
kinase activity, phosphorylation of GST-Raf13 (in vitro kinase assay) [1]: does not affect PAK1

B2: 6His-PAK4cat, recombinant catalytic domain of PAK4 (286-591) (protein)
chain: PPGPRSPQREPQRVSHEQFRAALQLVVDPGDPRSYLDNFIKIGEGSTGIVCIATVRSSGKLVAVKKMDLRKQQRRELLFNEVVIMRDYQHENVVEMYNSYLVGDELWVVMEFLEGGALTDIVTHTRMNEEQIAAVCLAVLQALSVLHAQGVIHRDIKSDSILLTHDGRVKLSDFGFCAQVSKEVPRRKSLVGTPYWMAPELISRLPYGPEVDIWSLGIMVIEMVDGEPPYFNEPPLKAMKMIRDNLPPRLKNLHKVSPSLKGFLDRLLVRDPAQRATAAELLKHPFLAKAGPPASIVPLMRQNRTR
phosphorylation of synthetic 13mer peptides in an array [2]: Inka1-derived sequences were significantly better substrates | phosphorylation of synthetic 13mer peptides in an array [3]: Inka1-derived sequences were significantly better substrates | phosphorylation of synthetic 13mer peptides in an array [4]: The AID-based peptide was phosphorylated as efficiently as Raf1 Ser338 | kinase activity, phosphorylation of GST-Raf13 (in vitro kinase assay) [1]: is a potent of PAK4cat inhibitor in vitro
